{"source": "paper PMC5906480", "about": "“Tau Antibody Structure Reveals a Molecular Switch Defining a Pathological Conformation of the Tau Protein” (Scientific Reports, 2018)", "molecules": {"B1": {"name": "C5.2: novel mouse monoclonal antibody that targets the pS396 tau epitope region (antibody, V domains shown)", "VH": "QVQLQQSDAELVKPGASVKISCKASGYTFTDRTIHWVKQRPEQGLEWIGYIYPGDDSTKYNDMFKAKATLTADKSSNTAYMQLNSLTSDDSAVYFCARRGTMDYWGQGTSVTVSS", "VL": "DVQMIQSPSSLSASLGDIVTMTCQASQDTSINLNWFQQKPGKAPKLLIYGASNLEDGVPSRFSGSRYGTDFTLTISSLEDEDMATYFCLQHTYLPFTFGSGTKLEIK"}}, "key": {"[1]": {"target": "FITC-conjugated tau peptide pS396/pS404", "test": "Fluorescence polarization direct binding, pS396/pS404 peptide", "details": "restated in Discussion; fluorescence polarization, Fab C5.2", "protocol": "FITC-labeled peptides used in fluorescence polarization experiments were synthesized by Biomatik (Cambridge, ON, Canada). Fab C5.2 affinity was determined using a fluorescence polarization-based direct binding assay with fluorescein isothiocyanate (FITC)-conjugated peptides (Table 1). The FITC-peptide concentration was kept constant at 300 nM while Fab C5.2 was serially diluted from 675 nM to 0.08 nM. Data was collected at 25 °C using excitation and emission wavelengths of 485 nm and 535 nm, respectively. Each experiment was done in a single 96-well plate and calculated in triplicate (buffer: 50 mM Tris, 100 mM NaCl, 0.1% pluronic F-127). The experiments were performed with a DTX 880 Multimode Detector (Beckman Coulter, Jersey City, NJ). Fluorescence data was reduced using multimode detection software and KD values were calculated in GraphPad Prism 7.0 using a nonlinear regression model.\nTo accurately measure the C5.2 binding affinity, we performed fluorescence polarization experiments to determine dissociation constants (KD), using the Fab C5.2 and four differentially phosphorylated FITC-conjugated peptides (Table 1). The peptide concentration was kept constant while that of Fab C5.2 was serially diluted from 675 nM to 0.08 nM (Fig. 1d). […] In comparison with a […] IgG molecule, each Fab fragment contains a single binding site so the KD was calculated using a nonlinear model."}, "[2]": {"tested_on": "tau in Alzheimer's disease brain fractions", "test": "Western and dot blot, Alzheimer's disease brain", "type": "binding, human", "protocol": "Mice were euthanized by cervical dislocation. Brains were quickly removed, weighed and divided sagittally down the midline to yield two hemispheres. One hemisphere was parted from the cerebellum and hindbrain, the forebrain containing cerebral cortex and hippocampus was snap-frozen on dry ice and stored at −80 °C until use for biochemical analysis. Frontal cortices from 4 AD donors (2 males and 2 females) and 4 non-demented healthy controls (HC, 2 males and 2 females) were obtained from Cambridge Bioscience (Cambridge, UK). The brain tissue samples were fresh-frozen and stored at −80 °C until used for biochemical analysis. All donors were of Caucasian race. Age of AD donors: 76–91 years. Age of the HC donors: 57–80 years. Post-mortem delays: 3–8 hours.\nBrain tissue extraction was performed as described previously. Tissues were homogenized in 10 volumes of Tris-buffered saline containing protease and phosphatase inhibitors as follows: 50 mM Tris/HCl (pH 7.4); 274 mM NaCl; 5 mM KCl; 1% protease inhibitor mixture (Roche); 1% phosphatase inhibitor cocktail I & II (Sigma); and 1 mM phenylmethylsulfonyl fluoride (PMSF; Sigma). The homogenates were centrifuged at 27,000 × g for 20 min at 4 °C to obtain supernatant (S1) and pellet fractions. Pellets were re-homogenized in 5 volumes of high salt/sucrose buffer (0.8 M NaCl, 10% sucrose, 10 mM Tris/HCl, [pH 7.4], 1 mM EGTA, 1 mM PMSF) and centrifuged as above. The supernatants were collected and incubated with sarkosyl (1% final concentration; Sigma) for one hour at 37 °C, followed by centrifugation at 150,000 × g for one hour at 4 °C to obtain sarkosyl-insoluble pellets, referred to as P3. The P3 pellet was re-suspended in TE buffer (10 mM Tris/HCl [pH 8.0], 1 mM EDTA) to a volume equivalent to half of the original volume used for the brain homogenates. S1 and P3 fractions isolated from the individual 4 AD and 4 HC brains were pooled and used as AD pool and HC pool for western and dot blot analysis.\nSamples were boiled in 1 × LDS loading buffer and 100 mM DTT. […] Tau and pTau levels were assessed in the samples using 1 μg/mL C5.2 overnight at 4 °C. A secondary fluorophore conjugated IgG antibody was used (IRDye 680 Goat anti-mouse, LICOR biosciences) and the signal was quantified using Odyssey CLx and Image studio software (LI-COR biosciences).\n1 μl sample of S1 and P3 isolated from 24 weeks old rTg4510 and non-transgenic littermate (non-tg) mice or from four pooled Alzheimer’s disease (AD) and healthy control (HC) brains was spotted on nitrocellulose membranes. […] Bound antibodies were detected using an enhanced chemiluminescence system (ECL PLUS kit; Perkin Elmer)."}}, "data": [{"molecule": "B1", "values": [{"measurement": "Kd", "setting": "[1]", "value": 15.4, "unit": "nM"}, {"measurement": "Binding to insoluble tau fraction (P3)", "setting": "[2]; C5.2 1 µg/mL overnight 4 °C, sarkosyl-insoluble P3, pool of 4 AD donors", "value": "binds predominantly to an insoluble tau fraction (P3)"}, {"measurement": "Reactivity to soluble tau fraction (S1)", "setting": "[2]; C5.2 1 µg/mL overnight 4 °C, soluble S1, pool of 4 AD donors", "value": "also has reactivity to a soluble tau fraction (S1)"}, {"measurement": "Specificity for pathological tau protein", "setting": "[2]; overall statement from blots and immunohistochemistry (Fig. 1), AD and rTg4510 vs controls", "value": "specific for pathological tau protein"}, {"measurement": "Bands recognized in S1 and P3", "setting": "[2]; western blot, C5.2 1 µg/mL, pool of 4 AD donors", "value": "recognizes similar bands in both fractions"}]}]}
